Laboratory results as given in the supplement of paper PMC10567573.

B1: CDC25A (parent)
chain: KPIVPTDGKRVIVVFHCEFSSERG
B2: PTPRD (parent)
chain: MVHVARLLLLLLTFFLRTDAETPP

Variants of: B1
Assay: protein stability index of a GFP-peptide fusion (GPS, HEK-293T) (PSI 1-6); higher = more stable
Conditions: c terminus: a fixed tail appended
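Also: lentivirally expressed fusions sorted by FACS into six bins by GFP to DsRed ratio, PSI derived from sequencing read proportions per bin multiplied by bin number.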

Protein stability index of substitutions, site by site:
P5: A 2.63; G 1.69; L 2.4; K 2.13; T 1.55; R 1.84; S 2.29; E 2.33; V 2.29; C 4.79; W 3.01; M 2.45; F 2.19; Y 2.66; N 4.39; D 1.33; H 1.5; I 2.42; Q 2.27
D7: R 2; S 1.84; W 4.57; E 2.8; M 2.53; V 2.3; Q 2.76; N 2.48; P 3.14; T 3.31; L 3.2; A 2.21; K 1.8; H 3.21; F 2.17
G8: P 1.52; I 2.89; Y 2.16; L 3.42; R 2.3; W 2.51; F 2.28; T 2.3; N 1.95; C 1.88; V 5.1; H 3.19; K 1.82; E 2.13; Q 1.51; D 1.33; M 3.53; A 2.26
V4: A 2.12; R 3.53; F 2.24; N 3.39; D 2.51; M 1.92; I 2.57; T 1.42; G 2.33; W 2.32; K 2.11; Q 2.44; L 2.33; S 2.49; E 1.48; Y 2.58; H 2.17; P 2.75; C 2.14
P2: F 2.37; R 1.99; D 1.61; A 3.03; N 3.3; I 3.46; Y 2.75; H 2.44; S 1.31; Q 2.24; V 1.82; C 3.03; L 1.83
K9: L 2.69; N 2.31; D 2.19; E 2.58; G 2.86; F 2.2; P 1.94; M 2.36; H 2.19; A 1.56; C 2.67; Q 3.32; R 2.92; S 2.4
T6: G 1.97; K 1.83; Q 3.58; V 1.61; H 2.71; E 1.82; P 1.95; Y 2.19; R 2.27; M 2.11; W 3.34; F 2.46; D 1.8; I 2.31; S 1.86; A 1.44; L 1.92; C 2.64; N 2.28
K1: F 1.32; H 2.4; M 1.86; V 3.69; D 2.13; W 2.24; N 1.62; T 1.98; S 2.04; Y 1.55; E 1.68; C 3.33; Q 2.15; R 2.65; A 1.37; I 2.57; P 2.25
I3: P 2.27; N 2.48; H 1.89; T 2.19; M 2.32; G 1.7; R 2.56; V 2.43; D 1.76; E 2.1; F 2.09; A 3.14; S 1.1; W 4.26; K 2.47

Variants of: B2
Assay: as above
Conditions: c terminus: a fixed tail appended

Protein stability index: each site, then its substitutions
F14: G 1.48; E 1.57; S 1.99; D 1.79; I 2.56; R 1.98; L 1.98; Q 2.15; P 2.45; H 1.25; C 1.47; K 1.61; A 1.93; Y 1.86; N 2.07; M 3.79
R17: Y 2.3; L 2.77; D 2.22; P 1.87; V 2.9; Q 1.92; F 2.87; I 2.17; N 3.08; T 2.79; E 1.62
E21: Y 2.55; A 3.13; C 2.82; M 3.64; L 2.79; Q 4.35; V 2.83; F 3.22; K 2.66
F15: N 3.47; I 2.25; M 2.34; L 2.13; V 2.2; P 2.01; D 2.02; H 4.29; Y 3; W 2.81; E 2.21
P24: I 2.26; N 1.73; A 3.4; Y 2.67; M 3.61; D 2.73; V 2.77; T 3.52; F 1.99; L 2.27; S 4.91; C 4.5; Q 3.53
D19: S 1.84; A 2.91; F 3.69; V 3.32; C 4.03; Q 2.75; N 2.96; K 2.29; I 2.41; L 2.71
T13: S 2.31; H 1.77; R 2.04; G 2.01; W 3.29; M 3.59; Q 1.32; N 2.05; I 4.2; P 2.14; K 2.03
P23: T 1.86; Y 3.76; S 2.84; R 3.55; F 2.96; A 2.42; E 2.31; Q 3.52; V 2.46; M 2.86; N 2.49
T22: R 3.51; H 2.36; N 2.05; S 4.07; D 2.81; V 3.03; W 5.11; E 2.08; F 1.95
L9: Y 2.74; T 3.23; W 2.29; S 2.29
T18: F 3.28; N 2.38; R 3.3; G 2.47; H 2.3; D 2.18; K 3.74; Y 2.88; C 1.86; V 2.63; M 2.62; S 2.48; E 2.04
L10: I 4.4; A 2.23; N 2.71; Q 1.57; M 2.42; K 2.83; F 2.43; W 1.93; D 1.67; G 1.33; T 1.24; E 2.79; C 2.04; R 2.14; P 3.02; Y 1.66
L12: E 2.51; W 2.53; K 2.63; H 1.58; G 2.46; I 2.03; R 2.03; S 2.3; Q 2.2; V 1.57; F 3; Y 3.69; N 2.12; D 1.57; C 3.16; P 2.19
L16: M 4.18; K 1.72; D 3.53; H 2.35; Q 1.74; N 2.12; T 2.68; F 1.37; G 2.65; P 2.65; S 2.22; E 3.34; A 1.49; W 1.81; Y 1.52; R 1.72
A20: F 1.84; I 1.81; Q 2.29; E 2.48; L 2.99; D 1.29; G 1.84; H 3.11
L11: P 3.92; S 3.85; W 3.02; N 3.99; H 1.97; E 1.62; K 1.69; I 2.14; M 3.56; F 2.56; V 1.84
